# Source: a protein production outcome set (Wang et al. 2014)
# Test: label from the status in PepcDB records
row,Sequence,protein production
1,MSQKKTSSRSSSVDDPATQYAKEVHSGERVAGPDIRNACARHLRDLEEGPKRGLTWDLDAANKAIRFYRTVLKLNGGEFEGLPFELLPWQKFIVGSIFGWKSSDGYRRFRVVYVESGKGSGKSPLAAGVGLTGLIADNEARAEIYAAATKKDQAMILFRDAVAMVQQSPELTKRLVCSGTGQNIWNLAYLKSGSFFRPISSDDGQSGPRPHMALIDEVHEHKTNMVVEMMRAGTKSRKQALIFMITNSGSNKRGPCWEYHEYGSRVASGALTDDGFFAYICSLDEGDDPIQDESCWFKSNPSLQDADLPGMKYLREQVTEARGMPSKEAMVRRLNFCEWTGAESPWISWDVWSQAEERVPMSLLRNRPSVGGLDLSSTTDLTSFVLLFYPTYEDPHWRLLPYFWIPDHELDKREARDKVPYAAWIKSRDLETTPGRAISKLHVLRRLQTICDFFQVDKIAFDRWRIEDMRQLMSEYDITLPELVEFGQGFKDMGPAVDEFERRLLGMIEQQPEEEGGAAEFFDDALPAEAVESLRHDGNPVMTWCAGNAVIVSDPANNRKADKAKATGRIDGIIAAIMATGISGAVSSGSSGSSIYDEGVGV,failed
2,MSQLVTHAFDDATALSFDGRQFHGQVKAEYYNMVGPFGGITAATMLKAAMSHPERLGQPLALTVNFAAPAKVAPFVIEAVPVRTNRSTQHFTLTMMQDGEVVTTATAVFGIRRESWSHTEAVMPDVPPPADVPRFVAPAPLPWMQWYHVRLIRGSAFDEVQDATTYQWMRDDPPRPLDHAALAALCDTFVPRVYVKLKRPVPIGTVTFTVYFLADPETIFRQGTNELLGVARATGFSHGYFDQIGEVWSQDGDLLATTTQLVYMKAPVSGSS,not failed
3,MSQNWNADYATLAKRGFMLGAGLFLLGIAGEVAGSAVLGTLPAWGDTLLVDMEMLGILVGLLSPLVFGVVMPLTE,failed
4,MSQQVIIFDTTLRDGEQALQASLSVKEKLQIALALERMGVDVMEVGFPVSSPGDFESVQTIARQVKNSRVCALARCVEKDIDVAAESLKVAEAFRIHTFIATSPMHIATKLRSTLDEVIERAIYMVKRARNYTDDVEFSCEDAGRTPIADLARVVEAAINAGATTINIPDTVGYTMPFEFAGIISGLYERVPNIDKAIISVHTHDDLGLAVGNSLAAVHAGARQVEGAMNGIGERAGNCSLEEVIMAIKVRKDILNVHTAINHQEIWRTSQLVSQICNMPIPANKAIVGSGAFAHSSGIHQDGVLKNRENYEIMTPESIGLNQIQLNLTSRSGRAAVKHRMDEMGYKESEYNLDNLYDAFLKLADKKGQVFDYDLEALAFIGKQQEEPEHFRLDYFSVQSGSNDIATAAVKLACGEEVKAEAANGNGPVDAVYQAINRITDYNVELVKYSLTAKGHGKDALGQVDIVANYNGRRFHGVGLATDIVESSAKAMVHVLNNIWRATEVEKELQRKAQHNENNKETV,not failed
5,MSQSNSNHSPQEQWQQAVLTYARDINRYVETGNRDGWKGLKEPHLPDTEHLLPDWQAALEASNQEPYDAARRQAFRQEWPPAHFPLSPRLESQGRMIPTLALLPDGSLLARIGAPYEAGEVVHIDDARIQPLEQVEGFGMCPQRRYFAWARADGIQLTDGWNGPEVASFAWPDPHANLPAGVALEDTGRPRPSSLIPFPDGRRVLLVSSDGIFVLQAEGATRLLPSLEDLQQELADGVAPEDLGIGLSMEHGAVSPDGQWIAVGEQSSSHLVFDARLQRVAQIGPASEYPHFAHFNQRGDRLLLNACHFYGGASVGVAVADLPGLSTDFYSDDARTPVLQEGARVYAAASRGDEFIIGDAYGYLRAFSENGEERWQHYIGSTLTAMDISPDGKTLVAATYAGIIVKLDLDAGRPDWQIGTGEHLEVQRWLFWKDFAKPLLW,failed
6,MSQSPILFFQHGMGESNQNMQILAGRVASENAYVVVPNLNLLTTFLNLDPLIEVVERSASETLNDFPQSTFSVVGFSMGGILWVEVLSRNPSWLERLDALVLIGSPIQGASLARTVDLFGWGIGIAQELGRNRQYLAEKITQKIPTLVIAGSVNGGGDGVIPIESTRLNGTHFFTRNNVKHQDLPIDLIIGEKVKSFLLHPYLIPS,failed
7,MSQVASLLIALPLISAFFVPVLKQIKKSLIFPYLTLITLLQTGIAGWVFYEVYTTGKPILIYAGGWRPPVGINLYIGPFAALFILIIAIVSFLTSLFSMRMVKVEPIDKYAMLFLLLMLGATGMIATGDIFNLFVFMEITAITAYALTAYNKTGEAAEASMKYMILGGIGSSFFLIGVALIYGVTGTLNMAQLAEFASAGKIMPVVAQVGLSLIIFGLAVEAELFPLNAWAPDAYQAAPHPITVMFSAFVVKAGLYAMARILYLLQKVNGWDSVLKLLLIMATLTVIFAELSALRQKDVKRMIAYSSIGQVGLIALAFSLGTQAGVDAGVFHMLNHAIVKTMMFLGVGYVGVMVGGTRIEDFRGLGKRMPLTALSLSVGAISTVGVPLFNVFWSKFRIIVATIQAGFVWPAVLVLFASVVEAVYYFRLLHVMWFAGEGERIKEGWIVVFLLLLALIIVGIGIYPTPVWEIVKRAGSDIFAVKVYINNVPLLGVVQ,failed
8,MSQYVVCALYKFVELNNYQELREPLLALMEKHHIRGTLLLAGEGINGTVASDRAGIDTLLEWLNTEPRLTGTVYKESYSETQPFNRTKVKLKKEIVTLGVEGIDPRHVVGTYVKPQDWNDLIADPEVFVVDTRNDYEIEIGTFKGAVNPNTETFREFPDYVKENMDPAKHKKVAMFCTGGIRCEKSTAYMKEQGFEEVYHLEGGILKYLEEVPQEESMWEGDCYVFDGRVAVNHQLEKADYDLCNACRLPITDEDKQSELFEQGVSCPKCHGKHSEEQVERFREREKQVSLANQRGEQHVGGESAKQRAQRREAKLAKKAAQRKQA,failed
9,MSRAGRIAAETRAAWYAFVRRRTAVFFTFFFPVILILIFGALVGTDPTGGGLFAEPAGYYVAGYLAVVVLFTPLSRVGSEVARHRSGNRFEKLATTPLSRAEWLFAQTLVNVVVIGLASLLILGLVLLVTDAAFTFSLLVVPYVALGVALFCGLGAILGRIADSQDGAIAASNGIAIPLLFLSETFVPPALLPEWFVPLLDLSPLTYFARGLRAATYEPVANTGGTGLVGSDPYLNLVVLAAGAVVFFAAGAYALPRTD,failed
10,MSRDDNGWSKLYPDLLRSIFESLSCLDFHRAGTVCSNWYAVSRSCPLYPWRIVFRGKNSVLFDPIQDKIYTKNLLGIDLSKIHCLASYGNWILIVDPRLDFYLLNVFTRETINLPSLESSLRGDRPFRFIRNDDESGYFLELYGTKFLLTWNDFRFEKTAILWVNGRNGDYVVAWAIKQFYIFSYKKIGNDDDDKRWSITCTQCEDMAYKDNKLYVYTFDHYINILDFSGNSPKEPMEENPYLSHPFSFVDAIYKLRLAVTREGKVLIVLSLVGLDKKICIYKLNLKIGDWEIVESLGDEMLIFGHGVTIRAPDKDISGGGLKSDSICFLYDDYLSDHYLTMKRQPICGVFDLATSTITWHTRLEDLSSKICWFVPGCA,failed
11,MSRFLTFFLIVFSYALQAQVASLTNAILYRNDGNLIKAKEEIDKAVVNEKTIGMPKTWFYTGLIYKDLYQATPTDLAALTTSTAAFKKVFELEKPAGEFSKKSQEALEQIWAISINNGVNLYQLENYRQAITDFERAQGIKPGDTTAYVYAFYAANELKDQALLEKYSSALVRLNYASEAVYYIDIESLMDKNLLDSAYTVSKKALTNYPSDIALKTQQTELMVKMNKTQEAIENLKVLSTKNPKDVQLLINIGSQYTNLNDEPHAAEYYQKALAIDSVNFNANYNMAVFSLRKANEISKQIVVSDNNLKKSFKAIPTVATDPLRQNLQKELAVSTKYYNRAVLGAKDEEAKKNVKTLQDNITSFEDQFLK,failed
